Laboratory results reported in patent publication US20090297479A1.

How the values were obtained:
[1] = molecular target: PD-1 on human peripheral blood CD4+ T cells (human) (UniProt Q15116); assay: cell-based or functional assay
[2] = molecular target: syndecan-4 (SD-4), human (human) (UniProt P31431); assay: cell-based or functional assay
Sequence of syndecan-4 (SD-4), human (human) (P31431 19-198): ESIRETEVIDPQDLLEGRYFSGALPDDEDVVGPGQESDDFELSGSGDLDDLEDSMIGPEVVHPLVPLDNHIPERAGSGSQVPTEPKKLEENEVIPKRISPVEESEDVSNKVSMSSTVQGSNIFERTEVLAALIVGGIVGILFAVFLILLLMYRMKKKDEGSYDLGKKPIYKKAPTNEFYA

Sequence of PD-1 on human peripheral blood CD4+ T cells (human) (Q15116 25-288): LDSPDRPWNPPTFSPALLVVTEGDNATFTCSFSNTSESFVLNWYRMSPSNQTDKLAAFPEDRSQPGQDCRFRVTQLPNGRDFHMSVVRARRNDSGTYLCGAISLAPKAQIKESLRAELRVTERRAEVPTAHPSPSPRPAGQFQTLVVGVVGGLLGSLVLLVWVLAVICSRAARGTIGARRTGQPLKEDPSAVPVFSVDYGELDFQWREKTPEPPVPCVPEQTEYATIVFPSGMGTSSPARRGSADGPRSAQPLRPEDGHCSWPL
Sequence of saporin-conjugated DC-HIL (human DC-HIL-Fc, biotinylated and conjugated with streptavidin-saporin) (Q14956 23-498): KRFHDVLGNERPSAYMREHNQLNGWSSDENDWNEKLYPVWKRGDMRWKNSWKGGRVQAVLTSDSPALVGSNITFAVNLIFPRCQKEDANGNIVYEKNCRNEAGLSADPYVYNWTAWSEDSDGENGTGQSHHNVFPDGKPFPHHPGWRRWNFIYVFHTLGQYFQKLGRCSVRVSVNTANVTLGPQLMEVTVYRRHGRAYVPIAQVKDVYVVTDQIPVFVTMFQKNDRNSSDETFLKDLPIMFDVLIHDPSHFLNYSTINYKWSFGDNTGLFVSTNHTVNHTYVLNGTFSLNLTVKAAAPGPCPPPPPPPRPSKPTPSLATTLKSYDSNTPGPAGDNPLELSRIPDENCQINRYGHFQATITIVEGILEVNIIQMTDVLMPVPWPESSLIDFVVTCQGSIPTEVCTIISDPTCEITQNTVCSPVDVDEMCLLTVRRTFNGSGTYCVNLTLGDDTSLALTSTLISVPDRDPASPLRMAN

## anti-PD-1 Ab (MIH4) (antibody)
[1]
  inhibition of proliferation induced by 0.3 µg/ml anti-CD3 Ab, Ab at 40 µg/ml: 50 % inhibition
  reduction of T cell proliferation at 0.1 µg/ml anti-CD3 Ab: 50%
  reduction of T cell proliferation at the highest dose (3 µg/ml) of anti-CD3 Ab: 10%

## saporin-conjugated DC-HIL (human DC-HIL-Fc, biotinylated and conjugated with streptavidin-saporin) (from UniProt Q14956 23-498)
[2]
  proliferation (3H-thymidine) of HUT-78 cells: 60 % reduction

## human DC-HIL-Fc (extracellular domain of human DC-HIL fused to the Fc portion of mouse IgG2a) (from UniProt Q14956 23-498) (Fc fusion)
[2]
  IL-2 production by HUT-78 cells triggered by anti-CD3 Ab: < 70%
